Results on two substances are retold here after patent US20110177501.

For series [1], the system named is AddAB helicase-nuclease (nuclease-deficient AddA D1172A, AddB D961A) AddA D1172A, AddB D961A (Bacillus subtilis). To be noted: unwinding monitored with IDCC-SSB at low ionic strength (20 mM NaCl), 2 mM MgCl2, ATP, 37 C; weaker at 200 mM NaCl.
Series [2] has as its target 6-IATR-E. coli SSB (W88C) W88C (mature protein numbering as printed) (Escherichia coli) (UniProt P0AGE0). The following applies: data not shown.

EcoRI-linearized pBR322 had an activity (bp s-1 per binding site) in series [1] of 1000.
As to poly-dT, the activity (fold fluorescence (+/- DNA)) in series [2] came to 4.5.
